From publication PMC10080691, “Enzyme-Responsive Double-Locked Photodynamic Molecular Beacon for Targeted Photodynamic Anticancer Therapy” (Journal of the American Chemical Society, 2023)

How the values were obtained:
[1] = Singlet oxygen quantum yield in DMF with DPBF as probe; type: physicochemical; conditions: irradiation λ > 610 nm, relative to ZnPc (ΦΔ = 0.56 in DMF)
Source text: The singlet oxygen generation efficiency of 1 was then studied and compared with that of 8, 14, and ZnPc in all these media using 1,3-diphenylisobenzofuran (DPBF) as the singlet oxygen probe.[67] The absorbance of DPBF’s absorption at 415 nm (in DMF) or 417 nm (in PBS and the buffer) was monitored during light irradiation (λ > 610 nm). Figures S4–S6 show the changes in the absorption spectra of the mixtures in DMF, PBS, and the buffer, respectively, upon irradiation. […] The singlet oxygen quantum yields (ΦΔ) were also determined in DMF. […]
where W and Iabs are the DPBF photobleaching rate and the rate of light absorption, […]
MMP-2 and Cathepsin B-Responsive Spectroscopic Studies
Compound 1 or 14 was dissolved in DMF to form a 1 mM stock solution, which was then diluted to 1 μM with PBS at pH 7.4 or buffer solution (pH 5.0, 25 mM NaOAc, 1 mM EDTA, 500 μM GSH), both in the presence of 0.1% Tween 80 (v/v) . For the MMP-2-responsive studies, the solutions in PBS were treated with MMP-2 (2 μg mL-1). For the cathepsin B-responsive studies, the solutions in buffer solution were treated with cathepsin B (1 unit mL-1). […]
All of the solutions were stirred continuously at 37 °C. The ir electronic absorption and fluorescence spectra were monitored over a period of 25 h. […]

A549 cells = experiment: Dark and photocytotoxicity (MTT); type: cell-based, human; conditions: without light irradiation, up to 4 μM, all conditions (with or without inhibitors)
Procedure: (§1) The dark- and photocytotoxicity of 1 was also investigated against all four cell lines under the different conditions as described, using 14 as a negative control. […] Without light irradiation, both 1 and 14 were noncytotoxic up to 4 μM for all conditions. Upon light irradiation (λ > 610 nm, 23 mW cm^–2, 28 J cm^–2), both conjugates however could induce a different extent of cytotoxicity. […] The results could be attributed to the intrinsic difference in the MMP-2 levels in these cells. […] The photocytotoxicity was further reduced under the dual inhibition condition, for which the IC50 values (>4 μM) also could not be determined. […] The overall results generally followed the trend of intracellular ROS generation as reported above. […]
(§2) Approximately 2 × 10^4 cells per well (100 µL) in the corresponding medium were inoculated in 96-well plates and incubated overnight at 37 °C in a humidified 5% CO 2 atmosphere. A stock solution of 1 or 14 (1 mM) was prepared as described above, which was diluted with a serum-free medium to various concentrations. The cells, after being rinsed with PBS twice, were treated with or without SB -3CT (10 μM) and/or CA -074 Me (25 μM) in the medi um (100 μL) for 2 h. The cells were further incuba ted with 100 μL of different concentrations of 1 or 14 for 1 h at 37 °C under 5% CO2. After being rinsed with PBS twice, the cells were incubated in the culture medium (100 μL) for 6 h. The cells were then rinsed with PBS and re -fed with 100 μL of a serum-containing medium before being irradiated (λ > 610 nm, 23 mW cm –2, 28 J cm– 2) at ambient temperature. Cell viability was determined by means of a colorimetric MTT assay.R7 After irradiation, the cells were incubated at 37 °C under 5% CO 2 overnight. After incubation, the medium was removed and the cell s were rinsed with PBS twice. A MTT (S igma) solution in PBS (3 mg mL -1, 50 μL) was added to each well followed by incubation for 4 h under the same environment. DMSO (100 μL) was then added to each well. Solutions in all the wells were mixed until homogenous. The absorbance at 490 nm of each w ell on the plate was […]
(§3) taken by a microplate reader (Tecan Spark 10M) at ambient temperature. The average […]
(§4) of the other wells. The cell viability was then determined by the equation: […]
(§5) where Ai is the absorbance of the ith datum (i = 1, 2, …, n), Acontrol is the average absorbance of the control wells in which the compound was absent, and n (= 4) is the number of data points. […]

U-87 MG cells = experiment: Dark and photocytotoxicity (MTT); type: cell-based, human; conditions: without light irradiation, up to 4 μM, all conditions
Procedure: as §1, §2, §3, §4, §5

HeLa cells = experiment: Dark and photocytotoxicity (MTT); type: cell-based, human; conditions: without light irradiation, up to 4 μM, all conditions
Procedure: as §1, §2, §3, §4, §5

HEK-293 cells = experiment: Dark and photocytotoxicity (MTT); type: cell-based, human; conditions: for dark cytotoxicity: without light irradiation, up to 4 μM, all conditions
Procedure: as §1, §2, §3, §4, §5

SMILES	ΦΔ (singlet oxygen quantum yield) [1]	dark cytotoxicity (A549 cells)	dark cytotoxicity (U-87 MG cells)	dark cytotoxicity (HeLa cells)	dark cytotoxicity (HEK-293 cells)	IC50 (HEK-293 cells; no inhibitor, 1 h + 6 h, light λ > 610 nm, 23 mW cm-2, 28 J cm-2) [µM]
CCN(CC)c1ccc2nc3ccc(/N=N/c4ccc(N(C)CCCNC(=O)OC[C@@H]5[C@@H]6CCc7nnn(CC(=O)NCCCC[C@@H]8NC(=O)CNC(=O)[C@H](CCCCN)NC(=O)CNC(=O)CNC(=O)CNC(=O)CNC(=O)CNC(=O)[C@H](CCCCN)NC(=O)[C@@H](N)CSCc9cc(COc%10ccc(C%11=C%12C(C)=C(I)C(/C=C/c%13ccc(OCCOCCOCCOC)cc%13)=[N+]%12[B-](F)(F)n%12c(/C=C/c%13ccc(OCCOCCOCCOC)cc%13)c(I)c(C)c%12%11)cc%10)cc(c9)CSC[C@@H](C(N)=O)NC(=O)[C@H](CCCCN)NC(=O)[C@H](CCCCN)NC(=O)CNC(=O)CNC(=O)CNC(=O)CNC(=O)[C@H](CCCCN)NC(=O)CNC8=O)c7CC[C@@H]65)cc4)cc3[n+](-c3ccccc3)c2c1 [compound 14]	0.02	noncytotoxic	noncytotoxic	noncytotoxic	noncytotoxic	–
CCN(CC)c1ccc2nc3ccc(/N=N/c4ccc(N(C)CCCNC(=O)OC[C@@H]5[C@@H]6CCc7nnn(CC(=O)NCCCC[C@@H]8NC(=O)CNC(=O)[C@H](CCCCN)NC(=O)[C@H](CCCNC(=N)N)NC(=O)[C@H](C(C)C)NC(=O)CNC(=O)[C@H](CC(C)C)NC(=O)[C@@H]9CCCN9C(=O)[C@H](CCCCN)NC(=O)[C@@H](N)CSCc9cc(COc%10ccc(C%11=C%12C(C)=C(I)C(/C=C/c%13ccc(OCCOCCOCCOC)cc%13)=[N+]%12[B-](F)(F)n%12c(/C=C/c%13ccc(OCCOCCOCCOC)cc%13)c(I)c(C)c%12%11)cc%10)cc(c9)CSC[C@@H](C(N)=O)NC(=O)[C@H](CCCCN)NC(=O)[C@H](CCCCN)NC(=O)CNC(=O)[C@H](CC(C)C)NC(=O)[C@H](Cc9ccccc9)NC(=O)CNC(=O)[C@H](CCCCN)NC(=O)CNC8=O)c7CC[C@@H]65)cc4)cc3[n+](-c3ccccc3)c2c1 [compound 1]	0.02	noncytotoxic	noncytotoxic	noncytotoxic	noncytotoxic	> 4
